# Test: soluble on expression in E. coli; label from the status in PepcDB or PDB records
row,Sequence,soluble on expression in E. coli
1,GPAIAENLYFQSPNPRPGKPSAPSLALGPSPGASPSWRAAPKASDLLGARGPGGTFQGRDLRGGAHASSSSLNPMPPSQLQLPTLPLVMVAPSGARLGPLPHLQALLQDRPHFMHQLSTVDAHARTPVLQVHPLESPAMISLTPPTTATGVFSLKARPGLPPGINVASLEWVSREPALLCTFPNPSAPRKDSTLSAVPQSSYPLLANGVCKWPGCEKVFEEPEDFLKHCQADHLLDEKGRAQCLLQREMVQSLEQQLVLEKEKLSAMQAHLAGKMALTKASSVASSDKGSCCIVAAGSQGPVVPAWSGPREAPDSLFAVRRHLWGSHGNSTFPEFLHNMDYFKFHNMRPPFTYATLIRWAILEAPEKQRTLNEIYHWFTRMFAFFRNHPATWKNAIRHNLSLHKCFVRVESEKGAVWTVDELEFRKKRSQRPSRCSNPTPGP,soluble
2,GPFPPPGMSLPEYWGEEHVWWDGRAAFHGEVVRPACTLAMEDAWQIIDMGETPVRDLQNGFSGPERKFSLRLRNCEFNSQGGNLFSDSRIRVTFDGVRGETPDKFNLSGQAKGINLQIADVRGNIARAGKVMPAIPLTGNEEALDYTLRIVRNGKKLEAGNYFAVLGFRVDYE,soluble
3,GPGGGSEAYFRVESGALGPEENFLSLDDILMSHEKLPVRTETAMPRLGAFFLERSAGAETDNAVPQGSKLELPLWLAKGLFDNKRRILSVELPKIYQEGWRTVFSADPNVVDLHKMGPHFYGFGSQLLHFDSPENADISQSLLQTFIGRFRRIMDSSQNAYNEDTSALVARLDEMERGLFQTGQKGLNDFQCWEKGQASQITASNLVQNYKKRKFTDMED,soluble
4,GPGSMAMMLHTRRTVYSCICVHTHTHTHTCGCPPPTLSQKKKRSRLFMSSSSGDEYDPAEVTVHTTVASPSLSDTVVPSAAPFLRSAAGNASAATVAAAPALASLPKTAASVLPSSSSPTPPNTGNDVDGGYRLHSNIKGRIRCLTLNTAGTTLCAGSEDGQLCMWDFTVPLKSYRVQPTRVLTPFVNRISGLQPIIALTCASDDSYFVACQDGDSPVLVRASGEQLGYCAIGERGLMDVIQCKGHRAPVTCVAAHTHDAAAFFTGSQDGTVRLWNTATFKQRSVYAVKHGSGQLTDTHAVESVASLDSFHNGLGRVFASGGQDGRVQIWDSRVKYRPGGAIATVDMYAAAAPAGPDKVTEDPFMEKHVGGMMELHQKDAGASNASGSYGLAVRLGSAVKIIDLPQLSHSDGTTAPKAVLQERLPGCPTCSTRALCRLGAVVGLQQ,soluble
5,GPGSMDCWNTRRDSKEFQHEAVEMDSLQANCGAPNEQAFHDTLVSAAYQLRARQRDTNVSISKAEMEGLVVLTRELENFKQMMKRSEFTVEGTWRIVEDGGMVERFGQQLYAELLTRNPRLRVHFHGVDIEEQSKSLLRMVGTAVHFYQKPQLTVDMFTKAGARHRGYGVNAEVFVEMRNAFMRVFSEFVGTDVFEAVEEEWRKFWKYVLDLLVHGSESAEGERYGKMYEEKMLKTIQADFKLIMERQNKCDLRGQFVSVMYSKAIEMHEELSKFEALKDLRASARVLQAYIDIINNIHDKKLLDEYMRELGGRHTAYNVTVENLQAFTEPFLFTCRHFFEEEWNIAAESRFLWLFEYMIDGISAGMVSDINSIVNLRAPSNSVTFGLIFTDIEASTRLWSKDSKSMSLAVKSHHAMIRRLIADYGAYEVKTVGDSFIIATKDVLVAVKLSLAIQLELMRMAPIAPGFAMVDSTEGHGDPQAWDDRTLRVRIGVEHCTDATATYDTIHRRYDYYGASVNRCARIEAAACGGQILLCRESFEYLKSMPEFHNDPCPHFLRHVEIATPPPKVDSRGLDHFVVVSDVGLASFKGIAEPVHLLSLVPRCLAGRQFTEKFTKVSE,not soluble
6,GPGSMDNTEETSRVTDQEERTLTETELPAPAEHVLEGDNSASEENRLHAFLIPLEDGEQFARANLQHRWYRGLTKMLWDEELERNGILIVERGESGRNNQSADEEEEEDDDGTDDCVAKMKREFRIKREQDKIVYEEDSTRTETLREEQNAISLIVTLMEEAMDRSILMNEAETMFALILDVLKPRVHYRYIYAWGVVTCCSFKPLKSEMDRLRPSDRHKPPYMRKSLPTCRVPLEPIYYLPDGGKKMRAMNELNDVRAIGWV,not soluble
7,GPGSMEAAPAAAAPRLPQAPKRPREESDAPLQESSNGSVPANFSNEASVTTPVAGTELVVDVDQPETNAQASAVDAPRSRSRGLAAVGPGSTSPVAASRSGTDGANNCQPAAAVTTLSSSSASADARRFKQPTLAAYGLVSDTMTLKKEISDRDSHIEELNREVEGLRAEAGRRNDQINFMDGQCRQYQRKLEHFQSVMRQEMLSAAQKDRSEARRVLYQKHFELGQTATWHSNGQTVWMEGDRVRTLFLKLADLTQKREEVEALKKAAQSNVKHLARQEREREDSGAGPDLQDALMAAQMEYQLRASEHAALTNTIADVKLKQTEIEHEKKAFVKEMRRVNDEDTSEFLAIPTIGEGDRYVLMHLLGKGGFSEVWKAFDLVEGRYVACKIHHIQREWPAQTRTHYLRHAQRELDIMRALDHPHLTHLYDVFPRGDNMFISVMEYSNGMDLDTYLKRYRIFKEADARLIFLQVVDVLRYLASLDSPIIHYDLKPANILLHRDDPTILDIKITDFGLSKIIGATREGPSDNPSIELTSQGTGTYWYLPPECFETSSTPRISNKVDIWSAGVIFYQMLFGKRPFAEGESQRRIWQEKLIIQSARTLHFPDTPKVSEEAKDIIRGCLAFNERERCDVFQLSQDPYLFRTSRRSAHKAKSAAPAGVGSSNSPLMPPVTDATPAS,soluble
8,GPGSMEFSGSTLSVVEVEHTVRQLRPFPLQDIGTAEWKNQREAVERLNMCTHSNAVLKKDDTVKAFLIEHEKLPVLLHELLVMEVWRQRVLPLIKDQIVQHPAGIYMYVQYEMVLLNLFECIAFHEEVVVALDEDVLELIDYCWRQASRLFAEQNVNEVQSKPTARDVSNAANTVEEVLKSADRQMLHAIYQRAMASLSILWFIIDRLNQLPLAASNSVLVKNDLILGLTEVMLLQPWLRRSSEATQKFFNGEFKDIPRADVLLVCTPEAHTWFSLHKLLCDPECRRRYSYTQSKKELILRIRHFLNDTLVDQIPALASLQRALEELSFLQPPSGTEEKFKSTLTIEQVPRIMTLVEVERKGSWDDLASTLRAMLQDPSVRNEDAMRLSRIFDEMFSDQLK,not soluble
9,GPGSMENKLLSAPQNTVNPIIEKKRVVSCGMCEVDTTKLLEELRKVKENLSEVIDECIFLENQCEMTEKRLKSELLDRDKRIADISSALMEMVKYTSLLERQVIASAFTTLGSAMKRAPAIDMCRNISLREVASAVRERGESSGSRSSAKRKTRNGALYSEAKMAEEKNAFLLSVDEACALVNGLLREKVNLAAKIGEVAFHVNNAIARGERTSPALPDASSENVDDLHQSILNLTKQLSACGNEGDEEKNLKQVPSQHTAETEEPRQPQGLIAEKEDNTSRPQSPSQTQPPAGLASLGPHILDISRSSLPAVSITTQKGEGECGDITTESLVKKLAAAEEKCMAVEKQSRREREELHAELAYLRNSSREEKEEYNTLIERLTVELEILVAENAVMRKRIKGRKHSRDKIE,not soluble
10,GPGSMEPNFFNNSGLMLLCKDGSAVRAIDVLKDAEYVLMYFSAHWCPPCRTFTPMLKSFYETHHAKKKFEVVFMSSDRSEEEMMSYFRESHGDYYCLPYADARSMARVWGDTYKFKTIPTLLVFENANPRKLIARCGREMVIKDPLGNLFPWPDADAQQPAESFIFDYTRKAAIVLGISVLLYSLISRSL,not soluble
11,GPGSMGQHSAKEFRGSRRGESNSGVFPLGPGHAHVGMGSTKKPLGIHTSAVQNNVLRQRNQHRRVMHEEGGSHPRGQEADGSHGEDIAEEKFPVVIRYAAHDVRSLLSSNEKVYVAVESLNWSKLPMTASEDSFYAIVELPQGPQRFRFVVGETEVVDTAQPIEDIAEGTPLLEPRGDVGHKGETRANVIHVNKALLLTKEDEEVPDDGSGWGQEEIIHKEDRKHPPIMPVHLRYTPVNTPLTAARCALDGFMRTTDEDTVSPENLPIPLSVTVNHVYFQRREDHCVTAMTTRFCNKYSTMVYYSKAEPTASLQ,not soluble
12,GPGSMGRASKDKRDIYYRKAKEEGYRARSAYKLLQIHEEFNILDPAEIRTGAVDLCAAPGSWSQVLAQHFKMISANLTAASEGDSLPAQTPRVVAVDLQEMAPIDGVTLLQGDITSEVTAREIIRLLNAPTSTGVVRTDDEQQQPQPASSSFSSSAPSPALGASPRKADIVLCDGAPDVTGMHELDEYLQHHLLLAALHITTFVLRAGGCFLTKIFRGPNTAFLVAKSQLFFQQVRVVKPKSSRNASMESFLLCQGFRMPLGYVPRFVGAAAPAAASSATTGCSRGAASASAGCGSRVEADNEEGVKGERSETAIGSGGPLRASGFTPEAPLYCYDTTASFSHASDGGAAAAATVHDVAHHNQRTSCTLADGVLAPFLSCGDLSGFDADMCYDRDEDADVLEPVQPPLQAPYLAAAAASPSQLAGVADGRDTEADASQKKKIRVESPTAIAGRDSSTGGEEQQ,not soluble
13,GPGSMHLSELCRDSNIDVIIARLRQVAPLEPAPAFSLSEGAADDDTTPATGHSDFHGLWSYQDNDGRTAFHWAIALKNFDLARKLMQAPYNSPVLTEDEEWSTPFATACSVGAPLDLLREILDRSVVELAAHMKQKETQQNPTSEEQNSSSAAVTEPAEGSSDGKPTKFLSDMPGILQPVDGTPASISAVLVDAEDATGQTPLLLAVGRGHLSIVRFLLENGANLMHQNRRGQSCLHRAVNRGNMELVEFLVSTSENNAKSKAVHRVWMDLRDKHGDSALFYASMDNNEEIGRYLLRHGADRELRNADGKAFWEV,soluble
14,GPGSMIARAIANRAACTFLNISSSSLMSKWMGDGEKLVRCLFAVATVKQPSVIFIDEIDSLLSMRGEGETDSVRRVKTEFLVQLDGVATDRGDRVLLIGATNRPDELDEAARRRMEKRLYIPLPDEAARRELIQRLLKSLGPSEAGEDGAIGNAGEAASTATATTTTQVTHTLTDADLDTLVRSTDGYSGADLKQLCREAAMGPLREMSIMQLSAVAAADLRPVQRKDFRQALKRLKPSVGPAEVQRYVEWNKLFGSFNEHDDDDDDELEHHEGHGAC,soluble
15,GPGSMIGAPWPPEAVFGNTVDRVASPAPVPERKISIADQLHLPLSRFVEKMSWGEKRRVQILHGMLYPATVYLLDECSTDIDVAERRTVLELVRQECEAKDGCCVYATHIFDGIEGWATHLLLMEGGRVVDFKAVEKLTLPLEDYALQFMSKRAHAARGVDGVAAASLSHGSSAAISTTSPACPTTAAAACPTSATTDAPVTYWPRGHADEKRSEIVINCAQLNYKDVFKNLSFQVFRGERVLLCGGNGTGKSTLLNMLGGKQFFDNRQGSLSVLGKRCYDDMLLNALVSYGGDWWTAVPGGEVHVREMLQLRTSRAERLCEMLAVDMDWDVRHISAGEQKRVQLLLHLLDDKPVVLLDEATTDLDVYQRHSLLQFLYEESVQRGVTVVYSTHIFGGVEGWANVVVLLDRTVRGVHAVWRASEGQPIVLQRVVDAIVSLKAREVF,not soluble
16,GPGSMKKCWVFDCAAPGLYCEPRRLLKPFSTDSILDAAGRAFETVEDGLKATTWRTHHAFSARCGLTSVTRSDSTTCGKGVEESSVSRSPEDYREWHADFHLRSPSAEPHVLLSVAPHYLPSRGSGNADDGRKMEVVGSRGRWLKPWRPQTAEEQAAYDAAVLGTPLIWEEPLVLSLDCTADGVFLWSEDHGIYGEKVANRCFERHSSDAGDDSAEFKQEAFLRFRWSEQPPAQTSSVGSGRHEMKEEHVESPNVSKCGELRVFRGQRTKVEAEEPHVERISYEEADVDAGSGGFLWQSVLHRIISCGPVPKEVYFAPYVTLMESGDEVSLL,not soluble
17,GPGSMLDAATGKSKGFGFVLFDEEEKGAKAYKALNRKMTRACGHSFTLVIYPSNHNGKIFTEESNALYIRNIPISIGQEKMERFLRTFGNLIYFAMREDHYGNPVWVVYAEYETVDDAKNALAKLHGNNTYFHGSVPILAKFEDSDDAKKERRRRRDGMQTHDRTAGAFFRHRSATTRTLDRFTPLPRR,not soluble

# Source: the DeepSol protein solubility set
